Experiments:
[1] = biological target: human PDGF R alpha antibody containing human κ light chain subgroup 3 (Vκ3) (manufactured by R&D Systems); test: ELISA; antibody immobilised (10 ug/mL), binding protein at 50 ug/mL, Anti-6-His detection, blank-subtracted
[2] = biological target: human CTLA4 antibody containing human κ light chain subgroup 3 (Vκ3) (manufactured by R&D Systems); test: as above
[3] = biological target: human PCSK9 antibody containing human κ light chain subgroup 4 (Vκ4) (manufactured by R&D Systems); test: as above
[4] = biological target: Herceptin containing human κ light chain subgroup 1 (Vκ1) (manufactured by Chugai Pharmaceutical Co., Ltd.); test: as above
[5] = biological target: human CTLA4 antibody containing human κ light chain subgroup 3 (Vκ3) (manufactured by R&D Systems); test: ELISA; antibody immobilised, binding protein added, Anti-6-His detection (method of Example 21(4))
[6] = biological target: Herceptin containing human κ light chain subgroup 1 (Vκ1) (manufactured by Chugai Pharmaceutical Co., Ltd.); test: as above
[7] = biological target: Herceptin containing human κ light chain subgroup 1 (Vκ1) (manufactured by Chugai Pharmaceutical Co., Ltd.); test: ELISA; Herceptin immobilised, binding protein at 2 ug/mL, dissociation with 0.05 M citric acid pH 2.4 for 2 min, absorbance ratio to wells without dissociation

Polyclonal antibody-binding activity (abs@450 nm) [5] [abs@450 nm]	Polyclonal antibody-binding activity (abs@450 nm) [6] [abs@450 nm]	Elution rate [%] [7] [%]	Binder	other results
0.07	0.86	–	FpL_C3KR (designed binder) ETPEEPREEVTIRVNLIFADGRIQTAEFRGTFEEATARAYAYANLLARENGEYTADLEDGGNTINIRFAGHHHHHH	Polyclonal antibody-binding activity (abs@450 nm) [1]: 0.21 abs@450 nm; Polyclonal antibody-binding activity (abs@450 nm) [2]: 0.32 abs@450 nm; Polyclonal antibody-binding activity (abs@450 nm) [3]: 0.77 abs@450 nm; Polyclonal antibody-binding activity (abs@450 nm) [4]: 0.92 abs@450 nm
–	–	59	FpL_C3KX 7c (designed binder) ETPGEPAEEVTIRVNLIFADGRIQTAEFIGTFEEATARAYAYANLLRRDYGDFTADLEDGGYTINIRFAGHHHHHH	–
0.78	0.98	–	FpL_C3KX_5e_P6S (designed binder) ETPEESAEEVTIRVNLIFADGRIQTAEFIGTFEEATARAYAYANLLARDYGGFTADLEDGGYTINIRFAGHHHHHH	–
–	–	61	FpL_C3KX 7b (designed binder) ETPGEPAEEVTIRVNLIFADGRIQTARFIGTFEEATARAYAYANLLARDYGDFTADLEDGGYTINIRFAGHHHHHH	–
–	–	25	FpL_C3KX 6a (designed binder) ETPGEPAEEVTIRVNLIFADGRIQTAEFIGTFEEATARAYAYANLLARDYGDFTADLEDGGYTINIRFAGHHHHHH	–
0.06	0.96	–	FpL_C3KX 5e (designed binder) ETPEEPAEEVTIRVNLIFADGRIQTAEFIGTFEEATARAYAYANLLARDYGGFTADLEDGGYTINIRFAGHHHHHH	–

Reference: patent US20250002543A1
